Laboratory results: paper PMC8390553, “The DNA-binding protein CST associates with the cohesin complex and promotes chromosome cohesion” (The Journal of Biological Chemistry, 2021)

T1: STN1, endogenous (HeLa) (human (endogenous in HeLa), UniProt Q9H668 1-368)
T1 construct: STN1 (OBFC1), subunit of the CST complex, endogenous; also called OBFC1; source: endogenous, in fixed HeLa 1.2.11 cells
T1 sequence (looked up): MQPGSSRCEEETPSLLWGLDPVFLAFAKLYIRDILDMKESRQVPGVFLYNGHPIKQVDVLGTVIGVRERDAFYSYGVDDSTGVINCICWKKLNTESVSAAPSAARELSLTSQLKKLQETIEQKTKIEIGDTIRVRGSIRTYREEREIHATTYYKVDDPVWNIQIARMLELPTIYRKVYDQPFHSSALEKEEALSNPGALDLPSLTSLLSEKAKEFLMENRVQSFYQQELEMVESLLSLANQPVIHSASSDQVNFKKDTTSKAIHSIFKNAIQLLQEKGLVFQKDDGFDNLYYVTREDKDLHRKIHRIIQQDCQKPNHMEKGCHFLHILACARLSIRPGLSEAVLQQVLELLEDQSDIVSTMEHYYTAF

B1: SMC3, endogenous (HeLa) (natural protein, human (endogenous in HeLa), UniProt Q9UQE7 1-1217, looked up)
chain: MYIKQVIIQGFRSYRDQTIVDPFSSKHNVIVGRNGSGKSNFFYAIQFVLSDEFSHLRPEQRLALLHEGTGPRVISAFVEIIFDNSDNRLPIDKEEVSLRRVIGAKKDQYFLDKKMVTKNDVMNLLESAGFSRSNPYYIVKQGKINQMATAPDSQRLKLLREVAGTRVYDERKEESISLMKETEGKREKINELLKYIEERLHTLEEEKEELAQYQKWDKMRRALEYTIYNQELNETRAKLDELSAKRETSGEKSRQLRDAQQDARDKMEDIERQVRELKTKISAMKEEKEQLSAERQEQIKQRTKLELKAKDLQDELAGNSEQRKRLLKERQKLLEKIEEKQKELAETEPKFNSVKEKEERGIARLAQATQERTDLYAKQGRGSQFTSKEERDKWIKKELKSLDQAINDKKRQIAAIHKDLEDTEANKEKNLEQYNKLDQDLNEVKARVEELDRKYYEVKNKKDELQSERNYLWREENAEQQALAAKREDLEKKQQLLRAATGKAILNGIDSINKVLDHFRRKGINQHVQNGYHGIVMNNFECEPAFYTCVEVTAGNRLFYHIVDSDEVSTKILMEFNKMNLPGEVTFLPLNKLDVRDTAYPETNDAIPMISKLRYNPRFDKAFKHVFGKTLICRSMEVSTQLARAFTMDCITLEGDQVSHRGALTGGYYDTRKSRLELQKDVRKAEEELGELEAKLNENLRRNIERINNEIDQLMNQMQQIETQQRKFKASRDSILSEMKMLKEKRQQSEKTFMPKQRSLQSLEASLHAMESTRESLKAELGTDLLSQLSLEDQKRVDALNDEIRQLQQENRQLLNERIKLEGIITRVETYLNENLRKRLDQVEQELNELRETEGGTVLTATTSELEAINKRVKDTMARSEDLDNSIDKTEAGIKELQKSMERWKNMEKEHMDAINHDTKELEKMTNRQGMLLKKKEECMKKIRELGSLPQEAFEKYQTLSLKQLFRKLEQCNTELKKYSHVNKKALDQFVNFSEQKEKLIKRQEELDRGYKSIMELMNVLELRKYEAIQLTFKQVSKNFSEVFQKLVPGGKATLVMKKGDVEGSQSQDEGEGSGESERGSGSQSSVPSVDQFTGVGIRVSFTGKQGEMREMQQLSGGQKSLVALALIFAIQKCDPAPFYLFDEIDQALDAQHRKAVSDMIMELAVHAQFITTTFRPELLESADKFYGVKFRNKVSHIDVITAEMAKDFVEDDTTHG
notes: SMC3, core subunit of the cohesin complex, endogenous; also called cohesin subunit; source: endogenous, in fixed HeLa 1.2.11 cells
B2: PolA1, subunit of DNA polymerase α-primase, endogenous (HeLa) (natural protein, human (endogenous in HeLa), UniProt P09884 1-1462, looked up)
chain: MAPVHGDDSLSDSGSFVSSRARREKKSKKGRQEALERLKKAKAGEKYKYEVEDFTGVYEEVDEEQYSKLVQARQDDDWIVDDDGIGYVEDGREIFDDDLEDDALDADEKGKDGKARNKDKRNVKKLAVTKPNNIKSMFIACAGKKTADKAVDLSKDGLLGDILQDLNTETPQITPPPVMILKKKRSIGASPNPFSVHTATAVPSGKIASPVSRKEPPLTPVPLKRAEFAGDDVQVESTEEEQESGAMEFEDGDFDEPMEVEEVDLEPMAAKAWDKESEPAEEVKQEADSGKGTVSYLGSFLPDVSCWDIDQEGDSSFSVQEVQVDSSHLPLVKGADEEQVFHFYWLDAYEDQYNQPGVVFLFGKVWIESAETHVSCCVMVKNIERTLYFLPREMKIDLNTGKETGTPISMKDVYEEFDEKIATKYKIMKFKSKPVEKNYAFEIPDVPEKSEYLEVKYSAEMPQLPQDLKGETFSHVFGTNTSSLELFLMNRKIKGPCWLEVKSPQLLNQPVSWCKVEAMALKPDLVNVIKDVSPPPLVVMAFSMKTMQNAKNHQNEIIAMAALVHHSFALDKAAPKPPFQSHFCVVSKPKDCIFPYAFKEVIEKKNVKVEVAATERTLLGFFLAKVHKIDPDIIVGHNIYGFELEVLLQRINVCKAPHWSKIGRLKRSNMPKLGGRSGFGERNATCGRMICDVEISAKELIRCKSYHLSELVQQILKTERVVIPMENIQNMYSESSQLLYLLEHTWKDAKFILQIMCELNVLPLALQITNIAGNIMSRTLMGGRSERNEFLLLHAFYENNYIVPDKQIFRKPQQKLGDEDEEIDGDTNKYKKGRKKAAYAGGLVLDPKVGFYDKFILLLDFNSLYPSIIQEFNICFTTVQRVASEAQKVTEDGEQEQIPELPDPSLEMGILPREIRKLVERRKQVKQLMKQQDLNPDLILQYDIRQKALKLTANSMYGCLGFSYSRFYAKPLAALVTYKGREILMHTKEMVQKMNLEVIYGDTDSIMINTNSTNLEEVFKLGNKVKSEVNKLYKLLEIDIDGVFKSLLLLKKKKYAALVVEPTSDGNYVTKQELKGLDIVRRDWCDLAKDTGNFVIGQILSDQSRDTIVENIQKRLIEIGENVLNGSVPVSQFEINKALTKDPQDYPDKKSLPHVHVALWINSQGGRKVKAGDTVSYVICQDGSNLTASQRAYAPEQLQKQDNLTIDTQYYLAQQIHPVVARICEPIDGIDAVLIATWLGLDPTQFRVHHYHKDEENDALLGGPAQLTDEEKYRDCERFKCPCPTCGTENIYDNVFDGSGTDMEPSLYRCSNIDCKASPLTFTVQLSNKLIMDIRRFIKKYYDGWLICEEPTCRNRTRHLPLQFSRTGPLCPACMKATLQPEYSDKSLYTQLCFYRYIFDAECALEKLTTDHEKDKLKKQFFTPKVLQDYRKLKNTAEQFLSRSGYSEVNLSKLFAGCAVKS
notes: PolA1, subunit of DNA polymerase α-primase, endogenous; the subunit to which the PLA antibody was directed; The results name the partner as the complex DNA polymerase α-primase; the antibody of the PLA was against PolA1; source: endogenous, in fixed HeLa 1.2.11 cells

Biological target: T1, STN1, endogenous (HeLa)
Assay: proximity ligation; fixed HeLa 1.2.11 cells, Duolink PLA kit, antibodies to the endogenous proteins (mouse α-STN1 with rabbit α-SMC3, α-PolA1 or α-MCM7); untreated cells, and for STN1 with SMC3 also after HU (2 mM, 2 h), APH (1 μM, 2 h) or CPT (1 μM, 1 h)
Conditions: partners not purified

Row | Binder | PLA foci per cell (average) [foci per cell] | fold increase in PLA foci after HU, APH or CPT against untreated cells [fold]
1 | B1 | ~6 | ~2
2 | B2 | 2.5 | 
